Experimental findings from patent publication US20250340662A1 are described below.

For experiment [1], the target named is CD44v6 on cultured cancer cells (BHT-101, ACT-1, A431) (human) (UniProt P16070). Kind of experiment: LigandTracer, 125I-IgG4 on BHT-101 cells.
Experiment [2] shares this target. Description: live BHT-101 cells; apparent KD.

B1: AL-MN114-435 hIgG4 (antibody, V domains shown)
VH: EVQLLESGGGLVQPGGSLRLSCAASGFTFSSYAMSWVRQAPGKGLEWVSAISAGGSSTFYADSVKGRFTISRDNSKNTLYLQMNSLRAEDTAVYYCARHYYSDSDYRSSAAMDYWGQGTLVTVSS
VL: DIQMTQSPSSLSASVGDRVTITCRASQSISSYLNWYQQKPGKAPKLLIYAASSLQSGVPSRFSGSGSGTDFTLTISSLQPEDFATYYCQQDLYLLTFGQGTKLEIK
Regarding B1, the figures for the Kd in experiment [1] and in experiment [2] were 0.02 nM and less than 0.2 nM, respectively.

B2: AL-MN114-429 hIgG4 (antibody, V domains shown)
VH: EVQLLESGGGLVQPGGSLRLSCAASGFSFSSFAMSWVRQAPGKGLEWVSAISAGGSSTYYADSVKGRFTISRDNSKNTLYLQMNSLRAEDTAVYYCARHYYSDSDYRSSAAMDYWGQGTLVTVSS
VL: DIQMTQSPSSLSASVGDRVTITCRASQSISSYLNWYQQKPGKAPKLLIYAASSLQSGVPSRFSGSGSGTDFTLTISSLQPEDFATYYCQQDLYLLTFGQGTKLEIK
As to B2, the Kd in experiment [1] is 0.06 nM; in experiment [2], less than 0.2 nM.

B3: AL-MN114-132 hIgG4 (antibody, V domains shown)
VH: EVQLLESGGGLVQPGGSLRLSCAASGFTFSSYAMSWVRQAPGKGLEWVSAISGGGSSTYYADSVKGRFTISRDNSKNTLYLQMNSLRAEDTAVYYCARHYYSDSDYRSSAAMDYWGQGTLVTVSS
VL: DIQMTQSPSSLSASVGDRVTITCRASQSISSYLNWYQQKPGKAPKLLIYAASSLQSGVPSRFSGSGSGTDFTLTISSLQPEDFATYYCQQDLYLLTFGQGTKLEIK
With B3, in experiment [2], the Kd was less than 0.2 nM.

B4: AL-MN114-18 hIgG4 (antibody, V domains shown)
VH: EVQLLESGGGLVQPGGSLRLSCAASGFSFGSFAMSWVRQAPGKGLEWVSAISGGGSSTYYADSVKGRFTISRDNSKNTLYLQMNSLRAEDTAVYYCARHYYSDSDYRSSAAMDYWGQGTLVTVSS
VL: DIQMTQSPSSLSASVGDRVTITCRASQTIASYLNWYQQKPGKAPKLLIYTASNLQSGVPSRFSGSGSGTDFTLTISSLQPEDFATYYCQQDLYLLTFGQGTKLEIK
For the molecule B4, the Kd was 0.02 nM in experiment [1] and less than 0.2 nM in experiment [2].

B5: AL-MN114-71 hIgG4 (antibody, V domains shown)
VH: EVQLLESGGGLVQPGGSLRLSCAASGFSFRSFAMSWVRQAPGKGLEWVSAISGGGSSTFYADSVKGRFTISRDNSKNTLYLQMNSLRAEDTAVYYCARHYYSDSDYRSSAAMDYWGQGTLVTVSS
VL: DIQMTQSPSSLSASVGDRVTITCRASQSISSYLNWYQQKPGKAPKLLIYAASTLQSGVPSRFSGSGSGTDFTLTISSLQPEDFATYYCQQDLYLLTFGQGTKLEIK
As for B5, the Kd in experiment [1] is 0.02 nM; in experiment [2], less than 0.2 nM.

B6: AL-MN114-460 hIgG4 (antibody, V domains shown)
VH: EVQLLESGGGLVQPGGSLRLSCAASGFSFGSYAMSWVRQAPGKGLEWVSAISAGGSSTYYADSVKGRFTISRDNSKNTLYLQMNSLRAEDTAVYYCARHYYSDSDYRSSAAMDYWGQGTLVTVSS
VL: DIQMTQSPSSLSASVGDRVTITCRASQSIGSYLNWYQQKPGKAPKLLIYSASSLQSGVPSRFSGSGSGTDFTLTISSLQPEDFATYYCQQDLYLLTFGQGTKLEIK
Consider B6, for which the Kd in experiment [2] is less than 0.2 nM.

B7: AL-MN114-444 hIgG4 (antibody, V domains shown)
VH: EVQLLESGGGLVQPGGSLRLSCAASGFTFRSFAMSWVRQAPGKGLEWVSAISGGGSSTFYADSVKGRFTISRDNSKNTLYLQMNSLRAEDTAVYYCARHYYSDSDYRSSAAMDYWGQGTLVTVSS
VL: DIQMTQSPSSLSASVGDRVTITCRASQSIGSYLNWYQQKPGKAPKLLIYSASSLQSGVPSRFSGSGSGTDFTLTISSLQPEDFATYYCQQDLYLLTFGQGTKLEIK
On to B7, for which the Kd in experiment [1] was 0.02 nM; in experiment [2], less than 0.2 nM.

B8: AL-MN114-23 hIgG4 (antibody, V domains shown)
VH: EVQLLESGGGLVQPGGSLRLSCAASGFSFRNFAMSWVRQAPGKGLEWVSAISGGGGSTFYADSVKGRFTISRDNSKNTLYLQMNSLRAEDTAVYYCARHYYSDSDYRSSAAMDYWGQGTLVTVSS
VL: DIQMTQSPSSLSASVGDRVTITCRASQNISSYLNWYQQKPGKAPKLLIYSASILQSGVPSRFSGSGSGTDFTLTISSLQPEDFATYYCQQDLYLLTFGQGTKLEIK
Regarding B8, the Kd in experiment [2] is less than 0.2 nM.

B9: AL-MN114-79 hIgG4 (antibody, V domains shown)
VH: EVQLLESGGGLVQPGGSLRLSCAASGFTFRSFAMSWVRQAPGKGLEWVSTISAGGSSTFYADSVKGRFTISRDNSKNTLYLQMNSLRAEDTAVYYCARHYYSDSDYRSSAAMDYWGQGTLVTVSS
VL: DIQMTQSPSSLSASVGDRVTITCRASQSIANYLNWYQQKPGKAPKLLIYAASTLQSGVPSRFSGSGSGTDFTLTISSLQPEDFATYYCQQDLYLLTFGQGTKLEIK
On to B9, for which the Kd in experiment [1] is 0.03 nM; in experiment [2], less than 0.2 nM.

B10: AL-MN114-19 hIgG4 (antibody, V domains shown)
VH: EVQLLESGGGLVQPGGSLRLSCAASGFSFGSYAMSWVRQAPGKGLEWVSAISGGGSSTFYADSVKGRFTISRDNSKNTLYLQMNSLRAEDTAVYYCARHYYSDSDYRSSAAMDYWGQGTLVTVSS
VL: DIQMTQSPSSLSASVGDRVTITCRASQSISSYLNWYQQKPGKAPKLLIYSASSLQSGVPSRFSGSGSGTDFTLTISSLQPEDFATYYCQQDLYLLTFGQGTKLEIK
For B10, the Kd in experiment [1] was 0.04 nM; in experiment [2] it was less than 0.2 nM.

B11: AL-MN114-451 hIgG4 (antibody, V domains shown)
VH: EVQLLESGGGLVQPGGSLRLSCAASGFTFSSYAMSWVRQAPGKGLEWVSAISAGGYSTYYADSVKGRFTISRDNSKNTLYLQMNSLRAEDTAVYYCARHYYSDSDYRSSAAMDYWGQGTLVTVSS
VL: DIQMTQSPSSLSASVGDRVTITCRASQSIGSYLNWYQQKPGKAPKLLIYTASTLQSGVPSRFSGSGSGTDFTLTISSLQPEDFATYYCQQDLYLLTFGQGTKLEIK
For B11, the Kd was 0.03 nM in experiment [1] and less than 0.2 nM in experiment [2].

B12: AL-MN114-42 hIgG4 (antibody, V domains shown)
VH: EVQLLESGGGLVQPGGSLRLSCAASGFTFSSYAMSWVRQAPGKGLEWVSAISGGGYSTYYADSVKGRFTISRDNSKNTLYLQMNSLRAEDTAVYYCARHYYSDSDYRSSAAMDYWGQGTLVTVSS
VL: DIQMTQSPSSLSASVGDRVTITCRASQTIGSYLNWYQQKPGKAPKLLIYSASILQSGVPSRFSGSGSGTDFTLTISSLQPEDFATYYCQQDLYLLTFGQGTKLEIK
As for B12, the figures for the Kd in experiment [1] and in experiment [2] were 0.04 nM and less than 0.2 nM, respectively.

B13: AL-MN114-439 hIgG4 (antibody, V domains shown)
VH: EVQLLESGGGLVQPGGSLRLSCAASGFSFGSFAMSWVRQAPGKGLEWVSAISAGGSSTFYADSVKGRFTISRDNSKNTLYLQMNSLRAEDTAVYYCARHYYSDSDYRSSAAMDYWGQGTLVTVSS
VL: DIQMTQSPSSLSASVGDRVTITCRASQSISSYLNWYQQKPGKAPKLLIYAASSLQSGVPSRFSGSGSGTDFTLTISSLQPEDFATYYCQQDLYLLTFGQGTKLEIK
Regarding B13, in experiment [2], the Kd is less than 0.2 nM.

B14: AL-MN114-14 hIgG4 (antibody, V domains shown)
VH: EVQLLESGGGLVQPGGSLRLSCAASGFTFSSYAMSWVRQAPGKGLEWVSAISGSGRSTFYADSVKGRFTISRDNSKNTLYLQMNSLRAEDTAVYYCARHYYSDSDYRSSAAMDYWGQGTLVTVSS
VL: DIQMTQSPSSLSASVGDRVTITCRASQSISSYLNWYQQKPGKAPKLLIYAASSLQSGVPSRFSGSGSGTDFTLTISSLQPEDFATYYCQQDLYLLTFGQGTKLEIK
Take B14: the Kd in experiment [2] was less than 0.2 nM.

B15: AL-MN114-145 hIgG4 (antibody, V domains shown)
VH: EVQLLESGGGLVQPGGSLRLSCAASGFSFSSFAMSWVRQAPGKGLEWVSAISAGGSSTFYADSVKGRFTISRDNSKNTLYLQMNSLRAEDTAVYYCARHYYSDSDYRSSAAMDYWGQGTLVTVSS
VL: DIQMTQSPSSLSASVGDRVTITCRASQSIGSYLNWYQQKPGKAPKLLIYSASNLQSGVPSRFSGSGSGTDFTLTISSLQPEDFATYYCQQDLYLLTFGQGTKLEIK
As for B15, in experiment [2], the Kd is less than 0.2 nM.

B16: AL-MN114-126 hIgG4 (antibody, V domains shown)
VH: EVQLLESGGGLVQPGGSLRLSCAASGFTFSSYAMSWVRQAPGKGLEWVSAISAGGSSTYYADSVKGRFTISRDNSKNTLYLQMNSLRAEDTAVYYCARHYYSDSDYRSSAAMDYWGQGTLVTVSS
VL: DIQMTQSPSSLSASVGDRVTITCRASQSISSYLNWYQQKPGKAPKLLIYAASSLQSGVPSRFSGSGSGTDFTLTISSLQPEDFATYYCQQDLYLLTFGQGTKLEIK
For B16, the results for the Kd in experiment [1] and in experiment [2] were 0.04 nM and less than 0.2 nM, respectively.

B17: AL-MN114-93 hIgG4 (antibody, V domains shown)
VH: EVQLLESGGGLVQPGGSLRLSCAASGFSFGSFAMSWVRQAPGKGLEWVSAISAGGSSTYYADSVKGRFTISRDNSKNTLYLQMNSLRAEDTAVYYCARHYYSDSDYRSSAAMDYWGQGTLVTVSS
VL: DIQMTQSPSSLSASVGDRVTITCRASQSISSYLNWYQQKPGKAPKLLIYAASSLQSGVPSRFSGSGSGTDFTLTISSLQPEDFATYYCQQDLYLLTFGQGTKLEIK
For the molecule B17, the Kd in experiment [2] is less than 0.2 nM.

B18: AL-MN114-423 hIgG4 (antibody, V domains shown)
VH: EVQLLESGGGLVQPGGSLRLSCAASGFTFSSYAMSWVRQAPGKGLEWVSAISAGGTSTYYADSVKGRFTISRDNSKNTLYLQMNSLRAEDTAVYYCARHYYSDSDYRSSAAMDYWGQGTLVTVSS
VL: DIQMTQSPSSLSASVGDRVTITCRASQSISSYLNWYQQKPGKAPKLLIYAASSLQSGVPSRFSGSGSGTDFTLTISSLQPEDFATYYCQQDLYLLTFGQGTKLEIK
B18: the figures for the Kd in experiment [1] and in experiment [2] were 0.1 nM and less than 0.2 nM, respectively.

B19: AL-MN114-452 hIgG4 (antibody, V domains shown)
VH: EVQLLESGGGLVQPGGSLRLSCAASGFSFSSYAMSWVRQAPGKGLEWVSAISAGGSSTFYADSVKGRFTISRDNSKNTLYLQMNSLRAEDTAVYYCARHYYSDSDYRSSAAMDYWGQGTLVTVSS
VL: DIQMTQSPSSLSASVGDRVTITCRASQSIGSYLNWYQQKPGKAPKLLIYSASSLQSGVPSRFSGSGSGTDFTLTISSLQPEDFATYYCQQDLYLLTFGQGTKLEIK
For the molecule B19, the Kd in experiment [2] is less than 0.2 nM.
